This is an account of results in patent US20130202591A1 (ANAPTYSBIO, published 2013).

As usually defined, the Kd is the concentration at which binding is half-saturated. A lower Kd goes with a tighter complex.

Positions count from the first letter of the chain named.

In experiment [1] the target is T1, human IL-17 (human, UniProt Q16552 24-155).
T1 construct: also called hIL-17; IL-17A
In words: SPR (BIACORE), antibody captured by anti-human Fc, antigen in flow; grade: ++ strong binding, + binding, +/- close to background.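 Further: antigen injected at two-fold dilutions from 50 nM over captured antibody at 30 µL/min, dissociation followed for 10 min, kinetics fitted with a 1:1 mass-transport model.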
From the text: BIACORE T100™ is used to determine antibody-antigen binding kinetics and affinity. The technology is based on surface plasmon resonance (SPR), an optical phenomenon that enables detection of label-free interactions in real time within a dextran biosensor matrix. It is therefore suited for measuring rate constants of association (kₒₙ) as well as dissociation (koff). All reagents and materials were purchased from GE Healthcare (Buckinghamshire, United Kingdom). […] 1×HBS-EP+ buffer (of 0.01M HEPES, 0.15M NaCl, 3 mM EDTA, 0.05% Polysorbate, pH 7.6) was used to reconstitute antigen at various concentrations (starting at 50 nM and using two-fold serial dilutions for each concentration). 210 μL of each antigen concentration was injected over captured antibody at a flow rate of 30 μL/min, then allowed to dissociate for 10 minutes. Surface was regenerated with 60 μL of 3M MgCl₂ after each cycle to establish baseline. Association and dissociation kinetic constants (kₐ and kd) were evaluated with “1:1 with mass transport” binding model in the BIACORE™ T100 Evaluation Software. The degree of binding for the BIACORE™ assay was measured as “++” (strong binding), “+” (binding), or “+/−” (close to background).

Experiment [2] concerns the target T1, human IL-17. Nature of the experiment: KINEXA 3000, solution equilibrium, free antibody captured on human IL-17a beads.
Method: KINEXA® technology measures the unbound/free receptor molecule in solution phase. Measuring binding events in the solution phase with micro beads for maximized surface area avoids mass transport limitations and mobility effects inherent to methods that measure binding to a solid phase. […] Antibody-antigen solution was then flown over antigen-coupled beads at a rate of 0.25 mL/min. […] In order to achieve the most accurate measurement for each antibody, each “Kd controlled curve” (wherein the antibody concentration is below the Kd) was combined with the “receptor controlled curve” (where antibody concentration is well above the Kd) in N-curve analysis.
In experiment [3] the target is T1, human IL-17. Nature of the experiment: SPR (BIACORE A100), IgG from transfection supernatant captured by anti-human Fc on CM5 chip, human IL-17 flowed over; 1:1 model with mass transport.
Method: Supernatants in 96-well plates were harvested 5-7 days post transfection. Prior to loading onto BIACORE™ A100 and/or BIACORE™ 4000 (GE Healthcare, Buckinghamshire, United Kingdom), plates were spun down at 1500 rpm for 5 minutes to remove air bubbles. Positive, negative, and media controls were spiked into empty wells. An anti-human Fc specific IgG was amine-coupled to the Sensor Chip CM5 surface at two different densities on two spots of a given flowcell for 2 over 2 analyses. The IgGs of interest were captured at both densities. […] Surface was regenerated with 10 mM glycine at pH 1.7 to remove material that was bound to the capture antibody. The data set was analyzed with 1:1 interaction Langelier mode with mass transport.

T1 sequence (Q16552 24-155 limits assumed): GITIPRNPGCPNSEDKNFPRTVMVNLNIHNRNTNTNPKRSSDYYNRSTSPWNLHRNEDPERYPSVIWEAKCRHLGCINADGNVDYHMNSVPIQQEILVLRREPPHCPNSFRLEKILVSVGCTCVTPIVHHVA

B1: MP4-9 (antibody, V domains shown)
VH: EVQLVESGGGLVQPGGSLRLSCAASGFTFSNYWMSWVRQAPGKGLEWVAAIKQDGSEKYYVDSVKGRFTISRDNAKNSLYLQMNSLRAEDTAVYYCARDYYDILTDYYIHYWYFDLWGRGTLVTVSS
VL: not shown
notes: Captured by anti-human Fc
Take B1: the binding result with human IL-17 [1] was “binds”.

B2: 887/841 (antibody, V domains shown)
VH: B1 VH with N31D, S35D, A50S, K52R, Q53E
VL: DIQMTQSPSSLSASVGDRVTITCRASQSISSYLNWYQQKPGKAPKLLIYAASSLQSGVPSRFSGSGSGTDFTLTISSLQPEDFAVYYCQQYGSSPLTFGGGTKVEIKR
notes: Captured by anti-human Fc
On to B2, for which, in the experiment with human IL-17 [1], the binding result was “binds”.

B3: 847/772 (antibody, V domains shown)
VH: B1 VH with N31S, Y32H, A50S, Q53E
VL: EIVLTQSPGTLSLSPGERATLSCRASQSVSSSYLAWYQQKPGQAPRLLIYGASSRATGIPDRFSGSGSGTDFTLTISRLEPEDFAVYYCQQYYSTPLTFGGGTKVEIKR
notes: Captured by anti-human Fc
Turning to B3, in the experiment with human IL-17 [1], the binding result was “binds”.

B4: 846/773 (antibody, V domains shown)
VH: B1 VH with Y32S, S35T, A50S, K52N, Q53H, Y59H, D62G, A88V
VL: not shown
notes: Captured by anti-human Fc
As to B4, in the experiment with human IL-17 [1], the binding result is on record as “binds”.

B5: MP4-22 (antibody, V domains shown)
VH: B1 VH with A97V
VL: not shown
notes: Captured by anti-human Fc
As for B5, the binding result with human IL-17 [1] is “binds”.

B6: APE499-1332/773 (antibody, V domains shown)
VH: B1 VH with Y32H, S35N, A40T, K52N, Q53E, D62G, G66V, T69I, A88V
VL: not shown
notes: Human IgG (detected with anti-human IgG)
B6 returned a Kd with human IL-17 [2] of 0.092 nM. This lies in the picomolar range.

B7: MP4-20 (antibody, V domains shown)
VH: B1 VH with D62G
VL: not shown
notes: Captured by anti-human Fc
As to B7, the binding result with human IL-17 [1] was “binds”.

B8: APE744-1266/1540 (antibody, V domains shown)
VH: B1 VH with Y32H, S35N, A40T, K52N, Q53E, D62G, G66V, A88V, A97V
VL: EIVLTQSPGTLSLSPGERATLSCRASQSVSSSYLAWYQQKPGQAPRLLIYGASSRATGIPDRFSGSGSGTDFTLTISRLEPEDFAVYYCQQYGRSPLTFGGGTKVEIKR
notes: as for B6
Regarding B8, in the experiment with human IL-17 [2], the Kd was determined as 0.875 nM.

B9: APE480-1261/773 (antibody, V domains shown)
VH: B1 VH with N31D, Y32F, S35D, A40T, A50S, Q53E, G66V
VL: not shown
notes: as for B6
In turn, B9 had a Kd with human IL-17 [2] of 1.2 nM.

B10: APE470-1150/773 (antibody, V domains shown)
VH: B1 VH with N31D, Y32F, S35D, A50N, Q53E
VL: not shown
notes: as for B6
Molecule B10 had a Kd with human IL-17 [2] of 6.9 nM.

B11: 1153/773 (antibody, V domains shown)
VH: B1 VH with N31S, Y32H, A50S, Q53E, G66V
VL: not shown
notes: Captured by anti-human Fc
B11: the binding result with human IL-17 [1] is reported as “binds”.

B12: 887/772 (antibody, V domains shown)
VH: B1 VH with N31D, S35D, A50S, K52R, Q53E
VL: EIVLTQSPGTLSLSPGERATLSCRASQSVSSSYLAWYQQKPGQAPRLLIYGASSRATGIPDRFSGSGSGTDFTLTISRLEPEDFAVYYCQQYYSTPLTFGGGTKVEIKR
notes: Captured by anti-human Fc
Regarding B12, in the experiment with human IL-17 [1], the binding result is listed as “binds”.

B13: MP4-23 (antibody, V domains shown)
VH: B1 VH with N31S, S35N, D62G, A97V
VL: not shown
notes: Captured by anti-human Fc
With B13, the binding result with human IL-17 [1] was “binds”.

B14: APE318-878/773 (antibody, V domains shown)
VH: B1 VH with N31D, S35D, A50N, K52R, Q53E
VL: not shown
notes: as for B6
With B14, the Kd in the experiment with human IL-17 [2] was determined as 14.2 nM.

B15: 1137/773 (antibody, V domains shown)
VH: B1 VH with N31S, A40T, A50N
VL: not shown
notes: Captured by anti-human Fc
On to B15, for which the binding result with human IL-17 [1] is listed as “binds”.

B16: APE498-1330/773 (antibody, V domains shown)
VH: B1 VH with Y32H, S35N, A40T, K52N, Q53E, D62G, G66V, A88V, A97T
VL: not shown
notes: as for B6
In the case of B16, in the experiment with human IL-17 [2], binding was characterised by a dissociation constant (Kd) of 0.126 nM.

B17: MP4-4 (antibody, V domains shown)
VH: B1 VH with S35N, D62G
VL: not shown
notes: Captured by anti-human Fc
For B17, the binding result with human IL-17 [1] was “binds”.

B18: MP4-6 (antibody, V domains shown)
VH: B1 VH with N31S, A50N, K52N, D62G, A97V
VL: not shown
notes: Captured by anti-human Fc
With B18, in the experiment with human IL-17 [1], the binding result is listed as “binds”.

B19: MP4-7 (antibody, V domains shown)
VH: B1 VH with A50N, K52N, D62G, A97V
VL: not shown
notes: Captured by anti-human Fc
For the molecule B19, in the experiment with human IL-17 [1], the binding result was “binds”.

B20: 847/842 (antibody, V domains shown)
VH: B1 VH with N31S, Y32H, A50S, Q53E
VL: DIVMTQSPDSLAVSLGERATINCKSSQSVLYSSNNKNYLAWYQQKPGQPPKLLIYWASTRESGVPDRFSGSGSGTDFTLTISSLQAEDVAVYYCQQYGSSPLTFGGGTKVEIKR
notes: Captured by anti-human Fc
Turning to B20, the binding result with human IL-17 [1] is “binds”.

B21: 1139/773 (antibody, V domains shown)
VH: B1 VH with N31S, Y32H, A40T, A50S, Q53E
VL: not shown
notes: Captured by anti-human Fc
Turning to B21, in the experiment with human IL-17 [1], the binding result is reported as “binds”.

B22: MP4-11 (antibody, V domains shown)
VH: B1 VH with A50N, A97V
VL: not shown
notes: Captured by anti-human Fc
Regarding B22, the binding result in the experiment with human IL-17 [1] was “binds”.

B23: MP4-14 (antibody, V domains shown)
VH: B1 VH with N31S, K52N
VL: not shown
notes: Captured by anti-human Fc
As to B23, the binding result with human IL-17 [1] is “binds”.

B24: 1147/773 (antibody, V domains shown)
VH: B1 VH with N31S, S35D, A50S, K52R, Q53E
VL: not shown
notes: Captured by anti-human Fc
With B24, the binding result with human IL-17 [1] is on record as “binds”.

B25: 1144/773 (antibody, V domains shown)
VH: B1 VH with Y32H, S35N, A50S, K52R, Q53E
VL: not shown
notes: Captured by anti-human Fc
On to B25, for which, in the experiment with human IL-17 [1], the binding result is “binds”.

B26: APE320-847/773 (antibody, V domains shown)
VH: B1 VH with N31S, Y32H, A50S, Q53E
VL: not shown
notes: as for B6
B26 gave a Kd with human IL-17 [2] of 2.5 nM.

B27: 1102/773 (antibody, V domains shown)
VH: B1 VH with N31S, S35D, A50N, K52R, Q53E
VL: not shown
notes: Captured by anti-human Fc
For the molecule B27, in the experiment with human IL-17 [1], the binding result was “binds”.

B28: 546/773 (antibody, V domains shown)
VH: B1 VH with N31S, A50N
VL: not shown
notes: IgG captured by anti-human Fc; also called Well 9
B28 came in with a Kd in the experiment with human IL-17 [3] of more than 10 nM.

B29: APE490-1263/773 (antibody, V domains shown)
VH: B1 VH with N31D, Y32F, S35D, A40T, A50S, Q53E, D62G, G66V, A88V
VL: not shown
notes: as for B6
The molecule B29 showed a Kd in the experiment with human IL-17 [2] of 0.948 nM.

B30: MP4-10 (antibody, V domains shown)
VH: B1 VH with D62G, A97V
VL: not shown
notes: Captured by anti-human Fc
Consider B30, for which the binding result in the experiment with human IL-17 [1] is “binds”.

B31: 878/842 (antibody, V domains shown)
VH: B1 VH with N31D, S35D, A50N, K52R, Q53E
VL: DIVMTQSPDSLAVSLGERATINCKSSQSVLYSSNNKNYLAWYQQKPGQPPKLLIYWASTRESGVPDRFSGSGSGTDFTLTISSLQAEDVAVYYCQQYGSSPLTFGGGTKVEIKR
notes: Captured by anti-human Fc
For B31, the binding result with human IL-17 [1] is “binds”.

B32: APE467-1138/773 (antibody, V domains shown)
VH: B1 VH with N31S, Y32H, A40T, A50S, Q53E, G66V
VL: not shown
notes: as for B6
B32 registered a Kd in the experiment with human IL-17 [2] of 0.374 nM.

B33: 843/773 (antibody, V domains shown)
VH: B1 VH with S35N, A50S, K52N, D62G, A88V, A97V
VL: not shown
notes: IgG captured by anti-human Fc; also called Well 14
On to B33, for which the Kd with human IL-17 [3] was less than 1 nM.

B34: 1146/773 (antibody, V domains shown)
VH: B1 VH with S35D, A50S, K52R, Q53E, D62G, A88V, A97V
VL: not shown
notes: Captured by anti-human Fc
Consider B34, for which, in the experiment with human IL-17 [1], the binding result is on record as “binds”.

B35: MP4-21 (antibody, V domains shown)
VH: B1 VH with S35N, A50N, K52N, D62G
VL: not shown
notes: Captured by anti-human Fc
B35: the binding result in the experiment with human IL-17 [1] is reported as “binds”.

B36: 878/772 (antibody, V domains shown)
VH: B1 VH with N31D, S35D, A50N, K52R, Q53E
VL: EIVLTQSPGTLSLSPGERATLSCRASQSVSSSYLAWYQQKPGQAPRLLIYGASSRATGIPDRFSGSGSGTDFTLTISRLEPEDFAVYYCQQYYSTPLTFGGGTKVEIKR
notes: Captured by anti-human Fc
In the case of B36, the binding result with human IL-17 [1] is recorded as “binds”.

B37: 1129/773 (antibody, V domains shown)
VH: B1 VH with N31S, A50N, G66V
VL: not shown
notes: Captured by anti-human Fc
B37: the binding result in the experiment with human IL-17 [1] was “binds”.

B38: 1143/773 (antibody, V domains shown)
VH: B1 VH with Y32H, S35N, A50G, K52R, Q53E
VL: not shown
notes: Captured by anti-human Fc
In the case of B38, the binding result in the experiment with human IL-17 [1] was “binds”.

B39: 1134/773 (antibody, V domains shown)
VH: B1 VH with N31S, A40T, A50S, G66V
VL: not shown
notes: Captured by anti-human Fc
As for B39, the binding result with human IL-17 [1] was “binds”.

B40: MP4-8 (antibody, V domains shown)
VH: B1 VH with A50N, K52N, A97V
VL: not shown
notes: Captured by anti-human Fc
B40: in the experiment with human IL-17 [1], the binding result is “binds”.

B41: MP4-2 (antibody, V domains shown)
VH: B1 VH with N31S, K52N, D62G, A97V
VL: not shown
notes: Captured by anti-human Fc
Regarding B41, the binding result with human IL-17 [1] was “binds”.

B42: antibody with heavy chain SEQ ID NO: 1 and light chain SEQ ID NO: 29 (antibody, V domains shown)
VH: B1 VH with N31S, A50N
VL: not shown
notes: IgG captured by anti-human Fc; also called Well 2
B42 displayed a Kd with human IL-17 [3] of more than 10 nM.

B43: MP4-17 (antibody, V domains shown)
VH: B1 VH with A50N
VL: not shown
notes: Captured by anti-human Fc
On to B43, for which, in the experiment with human IL-17 [1], the binding result was “binds”.

B44: MP4-16 (antibody, V domains shown)
VH: B1 VH with K52N, D62G
VL: not shown
notes: Captured by anti-human Fc
With B44, in the experiment with human IL-17 [1], the binding result is “binds”.

B45: APE860-1723/773 (antibody, V domains shown)
VH: B1 VH with S30N, Y32H, S35N, A40T, K52N, Q53E, D62G, G66V, A88V, A97V
VL: not shown
notes: as for B6
For B45, in the experiment with human IL-17 [2], the affinity, expressed as Kd, was 0.049 nM.

B46: 1142/773 (antibody, V domains shown)
VH: B1 VH with N31D, S35D, A50S, K52R, Q53E, D62G, A88V, A97V
VL: not shown
notes: Captured by anti-human Fc
As for B46, the binding result with human IL-17 [1] is given as “binds”.

B47: APE319-887/773 (antibody, V domains shown)
VH: B1 VH with N31D, S35D, A50S, K52R, Q53E
VL: not shown
notes: as for B6
The molecule B47 registered a Kd with human IL-17 [2] of 6.1 nM.

B48: APE253-771/773 (antibody, V domains shown)
VH: B1 VH with N31S, Y32H, A50N, Q53E
VL: not shown
notes: Human IgG; also called Well 10
In the experiment with human IL-17 [2], B48 displayed a Kd of approximately 60 nM.

B49: APE545-1346/773 (antibody, V domains shown)
VH: B1 VH with N31S, Y32H, A40T, A50S, Q53E, D62G, G66V, T69I, A88V
VL: not shown
notes: as for B6
In turn, B49 registered a Kd with human IL-17 [2] of 0.27 nM.

B50: MP4-5 (antibody, V domains shown)
VH: B1 VH with S35N, D62G, A97V
VL: not shown
notes: Captured by anti-human Fc
For the molecule B50, the binding result in the experiment with human IL-17 [1] was “binds”.

B51: APE857-1622/773 (antibody, V domains shown)
VH: EVQLVESGGGLVQPGGSLRLSCAASGFTFSNHWMNWVRQTPGKGLEWVAAINEDGSEKYYVGSVKVRFTISRDNAKNSLYLQMNSLRVEDTAVYYCVRDYYDILTRDYYDILTDYYIHYWYFDLWGRGTLVTVSS
VL: not shown
notes: as for B6
The molecule B51 yielded a Kd in the experiment with human IL-17 [2] of 0.0048 nM.
